Measured values published in patent US20220177548A1 (WISTAR INSTITUTE OF ANATOMY AND BIOLOGY, published 2022).

Biological target: HLA-A2 (on T2 cells) (human)
Experiment: T2 cell binding assay, fluorescence index by flow cytometry

Row | Binder | T2 Binding (FI)
1 | LATEKSRWSG (Synthetic 10-mer) [Unmodified 2 (human BRAFV600E peptide LATEKSRWSG, amino acids 597-606 of BRAFV600E)] | 1.1 FI = (MFI peptide/MFI w/o peptide) - 1
2 | LITEKSRWSG (Synthetic 10-mer) [Modified 1 (modified BRAFV600E peptide LITEKSRWSG)] | 1 FI = (MFI peptide/MFI w/o peptide) - 1
3 | LMTEKSRWSG (Synthetic 10-mer) [Modified 2 (modified BRAFV600E peptide LMTEKSRWSG)] | 0.8 FI = (MFI peptide/MFI w/o peptide) - 1
4 | LLTEKSRWSG (Synthetic 10-mer) [Modified 3 (modified BRAFV600E peptide LLTEKSRWSG)] | 0.9 FI = (MFI peptide/MFI w/o peptide) - 1
5 | LLTEKSRWSV (Synthetic 10-mer) [Modified 4 (modified BRAFV600E peptide LLTEKSRWSV)] | 6.5 FI = (MFI peptide/MFI w/o peptide) - 1
6 | LATEKSRWSI (Synthetic 10-mer) [Modified 5 (modified BRAFV600E peptide LATEKSRWSI)] | 0.7 FI = (MFI peptide/MFI w/o peptide) - 1
7 | LATEKSRWSL (Synthetic 10-mer) [Modified 6 (modified BRAFV600E peptide LATEKSRWSL)] | 0.6 FI = (MFI peptide/MFI w/o peptide) - 1
8 | LATEKSRWSV (Synthetic 10-mer) [Modified 7 (modified BRAFV600E peptide LATEKSRWSV)] | 1 FI = (MFI peptide/MFI w/o peptide) - 1
